Changes are numbered by the printed parent chain.
Molecular target: T1, 417N/484K/501Y RBD mutant (SARS-CoV-2, Wuhan-Hu-1 RBD backbone …, 417N | 484K | 501Y)
T1 construct: also called RBD KEN
Assay: BLI
Settings: both partners purified

B1: V020 (antibody, V domains shown)
VH: QVQLVESGGGVVQPGRSLRLSCAASGFTFSSYGMHWVRQAPGKGLEWVAVISYDGSNKYYADSVKGRFTISRDNSKNTLYLQMNSLRAEDTAVYYCAKGGWFGELLRYFDYWGQGTLVTVSS
VL: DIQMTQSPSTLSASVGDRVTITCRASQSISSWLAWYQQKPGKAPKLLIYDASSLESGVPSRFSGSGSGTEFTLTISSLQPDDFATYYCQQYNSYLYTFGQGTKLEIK
notes: IgG; donor BRA13; source: recombinant monoclonal IgG, produced and purified as previously described
B1 gave a Kd of 94.8 nM.

B2: V026 (antibody, V domains shown)
VH: B1 VH with A24V, D54E, F102Y, E104S, L105P, L106T, R107Y
VL: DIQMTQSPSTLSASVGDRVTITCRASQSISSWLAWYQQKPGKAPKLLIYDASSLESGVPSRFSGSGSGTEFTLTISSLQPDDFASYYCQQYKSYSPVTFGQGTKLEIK
notes: as for B1
For B2, the Kd was 11.9 nM.

B3: V021 (antibody, V domains shown)
VH: QVQLQESGPGLVKPSQTLSLTCTVSGGSISSGSYYWSWIRQPVGKGLEWIGRIYTSGSTNYNPSLKSRVTISVDTSKNQFSLELSSVTAADRAVYYCARESSPASIPVRGVIWWFDPWGQGTLVTVSS
VL: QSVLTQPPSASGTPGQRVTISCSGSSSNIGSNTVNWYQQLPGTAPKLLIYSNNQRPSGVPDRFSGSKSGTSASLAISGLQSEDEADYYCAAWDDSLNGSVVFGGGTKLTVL
notes: IgG; donor BRA13
B3 showed a Kd of 32.6 nM.

B4: V027 (antibody, V domains shown)
VH: not shown
VL: NFMLTQPHSVSESPGKTVTISCTRSSGSIASNYVQWYQQRPGSAPTTVIYEDNQRPSGVPDRFSGSIDSSSNSASLTISGLKTEDEADYYCQSYDSSNHRVFGGGTKLTVL
notes: IgG; donor BRA14; source: recombinant monoclonal IgG, produced and purified as previously described
For B4, the Kd was 37.3 nM.

B5: V025 (antibody, V domains shown)
VH: QVQLVQSGAEVKKPGASVKVSCKASGYTFTSYGISWVRQAPGQGLEWMGWISVYNGKTNYAQKLQGRVTMTTDTSTSTAYMELRSLISDDTAVYYCARADRYNWDYGSSWGQGTLVTVSS
VL: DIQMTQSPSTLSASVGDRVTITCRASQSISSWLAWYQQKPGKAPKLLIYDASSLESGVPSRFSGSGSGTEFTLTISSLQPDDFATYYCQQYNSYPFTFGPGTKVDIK
notes: as for B1
In the case of B5, the Kd is reported as 2.84 nM.

B6: V002 (antibody, V domains shown)
VH: EVQLVESGGGLVQPGRSLRLSCAASGFTFDEYAMHWVRQAPGKGLEWVSGSSWNSGTIGYADSVKGRFTISRDNAKNSLYLQMNSLRAEDTALYYCAKSQGDYGGNSGAGYFQHWGQGTLVTVSS
VL: SYELTQPPSVSVAPGKTARITCGGNNIGSKSVHWYQQKPGQAPMLVVYDDSDRPSGIPERFSGSNSGNTATLTISRVEAGDEADYYCQVWDSSSEVYVFGTGTKVTVL
notes: as for B1
For B6, the Kd was 979 nM.

B7: V022 (antibody, V domains shown)
VH: EVQLVESGGGLVKPGGSLRLSCAASGFTFSSYSMNWVRQAPGKGLEWVSSISSTNNYIYNADSVKGRFTISRDNAKNSLYLQMNSLRAEDTAVYYCARDPAGRYSYGLYYFYYMDVWGKGTTVTVSS
VL: QSALTQPASVSGSPGQSITISCTGTSSDVGGYNYVSWYQQRPGKAPKLMIYDVSNRPSGVSDRFSGSKSGNTASLTISGLQAEDEADYYCTSYTSSSSLYVFGTGTKVTVL
notes: as for B1
Binder B7 has a Kd of 5.71 nM.

B8: V019 (antibody, V domains shown)
VH: QVQLVQSGAEVKKPGSSVKVSCKASGGTFSTYTFSWVRQAPGQGLEWMGRIIPILGIANYAQKFQGRITITADKSTSTAYMELSSLRSEDTAVYYCAWGSYSYGYFVDIWGQGTMVTVSS
VL: DIVMTQTLLSLSVTPGQPASISCKSSQSLLHSDGKTYLYWYLQKPGQSPQLLIYEVSSRFSGVPDRFSGSGSGTDFTLKISRVEAEDVGVYYCMQGIQFHWTFGQGTKLEIK
notes: as for B1
B8 was tested, and the Kd was 3.31 nM.

B9: V028 (antibody, V domains shown)
VH: QVQLVESGGGVVQPGRSLRLSCAASGFTFSSYGMHWVRQAPGKGLEWVAVVSFDGSDKYYADSVKGRFTISRDNSKNTLYLQMNSLRAEDTALYYCAKGGYSYAYPRYYFDYWGQGTLVTVSS
VL: DIQMTQSPSSLSASVGDRVTITCQASQDISNYLNWYQQKPGKAPKLLIYDASNLETGVPSRFSGSGSGTDFTFTISSLQPEDIATYYCQQHDNLPITFGQGTRLEIK
notes: as for B4
For B9, the Kd was 44.6 nM.

B10: V031 (antibody, V domains shown)
VH: B9 VH with V51I, F53Y, D57N, T69A, I70F, L93V
VL: B9 VL
notes: as for B4
In the case of B10, the Kd is reported as 14.5 nM.

B11: V024 (antibody, V domains shown)
VH: QVQLVESGGGVVQPGRSLRLSCAASGFTFSSYGMHWVRQAPGKGLEWVAVISYDGSNKYYADSVKGRFTISRDNSKNTLYLQMNSLRGEDTAVYYCAKAGYGYSYGYGQIDYWGQGTLVTVSS
VL: not shown
notes: IgG; donor BRA13
Binder B11 has a Kd of 33.2 nM.
